Laboratory results: PMC5803273, “Design of ultra-swollen lipidic mesophases for the crystallization of membrane proteins with large extracellular domains” (Nature Communications, 2018)

Biological target: the molecule itself
Experiment: crystal structure; in meso crystals from 10 wt% DSPG/MP swollen mesophase, 20 °C, 0.2 M (NH4)SO4, 0.02 M NaCl, 0.02 M Na acetate pH 4, 33% v/v PEG200; molecular replacement with 4HFI and 4NPQ; 6 Å; closed state

B1: Gloeobacter violaceus ligand-gated ion channel (GLIC) (natural protein)
chain: VSPPPPIADEPLTVNTGIYLIECYSLDDKAETFKVNAFLSLSWKDRRLAFDPVRSGVRVKTYEPEAIWIPEIRFVNVENARDADVVDISVSPDGTVQYLERFSARVLSPLDFRRYPFDSQTLHIYLIVRSVDTRNIVLAVDLEKVGKNDDVFLTGWDIESFTAVVKPANFALEDRLESKLDYQLRISRQYFSYIPNIILPMLFILFISWTAFWSTSYEANVTLVVSTLIAHIAFNILVETNLPKTPYMTYTGAIIFMIYLFYFVAVIEVTVQHYLKVESQPARAASITRASRIAFPVVFLLANIILAFLFF
notes: GLIC, Gloeobacter violaceus ligand-gated ion channel; expressed from pET20-MBP-thrombin-GLIC (N-terminal signal peptide, MBP, thrombin site, GLIC); MBP removed by thrombin; the pentamer is printed as 174 kDa, 1585 amino acids (317 per chain); also called Gloeobacter ligand-gated ion channel; GLIC pentamer; not shown: MBP, N-terminal, cleaved
stoichiometry N: 5
